Test results taken from US20120058118A1 (Boehringer Ingelheim, published 2012).
Ends that are not written are not given here. * marks the point of attachment. Biotin = O=C1N[C@H]2[C@H](CS[C@H]2CCCCC(=O)*)N1

T1: A-beta(12-28) peptide (human)
T1 construct: Bachem peptide captured on streptavidin chip; also called monomeric A-beta(12-28); central region
T1 peptide: Biotin-VHHQKLVFFAEDVGSNK

T2: A-beta(1-16) peptide (human)
T2 construct: Bachem peptide captured on streptavidin chip; also called monomeric A-beta(1-16)
T2 peptide: DAEFRHDSGYEVHHQK-biotin


Tests used:
[1] = target: T3, aggregated A-beta(1-40) peptide (BAA) (human); assay: BAA ELISA
T3 construct: also called A-beta peptide aggregates

[2] = target: T4, human A-beta(1-40) peptide, monomeric (BAM) (human, biotin at the C-terminus in capture ELISA, SPR and TR-FRET; not biotinylated where coated directly (Example 7)); assay: BAM ELISA
T4 construct: synthetic peptide (Anaspec), TFA/HFIP treated to give monomer; also called monomeric A-beta

[3] = target: T4, human A-beta(1-40) peptide, monomeric …; assay: BAM ELISA; remark: listed apart in the source
[4] = target: T4, human A-beta(1-40) peptide, monomeric …; assay: TR-FRET competition, labelled ABII60A10
[5] = target: T4, human A-beta(1-40) peptide, monomeric …; assay: cell-based or functional assay
A-beta(12-28) peptide = target: T1, A-beta(12-28) peptide; assay: SPR on captured A-beta(12-28)
Experimental: (§1) After capturing, surfaces are blocked by injecting an excess (200 μg/ml) of d-biotin for 180 s at 5 μl/min. A reference surface is washed and blocked with d-biotin. HBS-EP+buffer is used as the running buffer and experiments are performed at 25° C. For off-rate screening, periplasmic extracts of VHHs are injected at a 10-fold dilution for 2 min at 45 μl/min and are allowed to dissociate for 10 min. […] Between different VHH samples, the surfaces are regenerated with regeneration buffer (50 mM NaOH) for 25 s at 45 μl/min followed by 10 s 6M GuHCl at 45 μl/min if regeneration is incomplete. […] Data are double referenced by subtraction of the curves on the reference channel and of a blank running buffer injection. Sensorgrams are evaluated by fitting a 1:1 dissociation model using the Biacore T100 Evaluation software v1.1.1.

[6] = target: T3, aggregated A-beta(1-40) peptide (BAA); assay: BAA ELISA; remark: listed apart in the source
[7] = target: T4, human A-beta(1-40) peptide, monomeric …; assay: 42D4 TR-FRET assay (labelled ABII42D4)
[8] = target: T4, human A-beta(1-40) peptide, monomeric …; assay: 60A10 TR-FRET assay (labelled ABII60A10)
[9] = target: T4, human A-beta(1-40) peptide, monomeric …; assay: TR-FRET competition, labelled ABII60A10; extrapolated curve
[10] = target: T4, human A-beta(1-40) peptide, monomeric …; assay: ABII050 TR-FRET competition assay
[11] = target: T4, human A-beta(1-40) peptide, monomeric …; assay: ABII002 TR-FRET competition assay
A-beta(1-16) peptide = target: T2, A-beta(1-16) peptide; assay: SPR on captured A-beta(1-16)
Experimental: as §1

| Binder | EC50 [3] | inhibition of peptide aggregation (ThT fluorescence), 28 µM VHH [5] | binding result (A-beta(12-28) peptide) | EC50 [6] | IC50 [9] | also measured |
| --- | --- | --- | --- | --- | --- | --- |
| reference VHH 3A (VHH, from WO2007/35092) VHH: AVQLVESGGGLVRDGDSLRLSCAASGRTFSSYVMGWFRQAPGKEREFVAAIGWSGGSTAYADSVKGRFTISRDNARNTVYLQMNSLKPEDTAVYYCASAPTRWVPRDSRFYDRWGQGTRVTVSS | – | – | – | – | – | binding result [1]: no binding; binding result [2]: no binding |
| ABII60A10-35GS-ABII42D4 (designed binder, biparatopic VHH construct) EVQLVESGGGLVQAGGSLRLSCAASGRTFNNYNMGWFRQAPGKEREFVAAVSRSGVSTYYADSVKGRFTISRDNAKNAVYLQMNSLKPEDTAIYYCGAAYRGTAINVRRSYDSWGQGTQVTVSSGGGGSGGGGSGGGGSGGGGSGGGGSGGGGSGGGGSEVQLVESGGGLVLAGGSLRLSCVHSGPTFSTDTMGWFRQAPGKEREFVAAVTWNSGRTNYADSVKGRFTVSRDNTRNAAYLQMSGLKDEDTAVYYCTAHRLVVGGTSVGDWRYWGQGTQVTVSS | – | – | – | – | – | IC50 [7]: 0.055 nM; IC50 [8]: 0.091 nM |
| ABII35C7 (VHH) VHH: EVQLVESGGGLVQPGGSLRLSCAASGRTFSIYNMGWFRQAPGKEREFVAAISRSGSSTYYGDSVKGRFTISRDNAKKTVYLQMNSLKPEDTAVYHCAAARFGTPINTRGSYDYWGQGTQVTVSS | 1.9 nM | 82% | binds | 1.3 nM | 206 nM | – |
| ABII35D2 (VHH) VHH: EVQLVESGGGLVQAGGSLRLSCVASGLTFSSYNMGWFRQAPGKEREFVAAISRSGGSTYYTDSVKGRFTISRDSSKNTVYLQMNSLKPEDTADYYCAAALFGSAINLLSEYRYWGQGTQVTVSS | 37.5 nM | 73% | binds | 12.8 nM | 773 nM | – |
| reference VHH 1B (VHH, from WO2007/35092) VHH: QVQLQESGGGLVQPGGSLRLSCAASEFTLDYYSIAWFRQAPGKEREGVSCISSYDGSTSYADSVKGRFTISRDNAKNTVYLQMNSLKPEDTAIYYCAAGIRDWATLREYEYDDWGQGTQVTVSS | – | – | – | – | – | binding result [1]: no binding; binding result [2]: no binding |
| ABII14D4 (VHH) VHH: EVQLVESGGGLVQAGGSLRLSCAASGRTFSTYNMAWFRHAPGKEREFVAAISRSGGSTYYVDSVKGRFTISRDNAKNTVYLQMNSLKPEDTAIYYCAAAPRGRSIVTTATYDYWGQGTQVTVSS | 124 nM | 78% | binds | 6.8 nM | – | IC50 [4]: 744 nM |
| ABII059-27GS-ABII035-MSA (designed binder, built from the printed name; not shown: mouse serum albumin) EVQLLESGGGLVQPGGSLRLSCAASGRTFNNYNMGWFRQAPGKGREFVAAVSRSGVSTYYADSVKGRFTISRDNSKNTVYLQMNSLRPEDTAVYYCAAAYRGTAINVRRSYSSWGQGTLVTVSSGGGSGGGGSGGGGSGGGGSGGGGSGGGEVQLLESGGGLVQPGGSLRLSCVHSGPTFRTDTMGWFRQAPGKGREFVAAVTWNSGRINYADSVKGRFTISRDNSKNTAYLQMNSLRPEDTAVYYCAAHRFVVGGNRVEDWRYWGQGTLVTVSS | – | – | – | – | – | IC50 [10]: 0.18 nM; IC50 [11]: 0.19 nM |
| ABII059-27GS-ABII035-MSA_D3 (designed binder, built from the printed name; not shown: domain III of mouse serum albumin) EVQLLESGGGLVQPGGSLRLSCAASGRTFNNYNMGWFRQAPGKGREFVAAVSRSGVSTYYADSVKGRFTISRDNSKNTVYLQMNSLRPEDTAVYYCAAAYRGTAINVRRSYSSWGQGTLVTVSSGGGSGGGGSGGGGSGGGGSGGGGSGGGEVQLLESGGGLVQPGGSLRLSCVHSGPTFRTDTMGWFRQAPGKGREFVAAVTWNSGRINYADSVKGRFTISRDNSKNTAYLQMNSLRPEDTAVYYCAAHRFVVGGNRVEDWRYWGQGTLVTVSS | – | – | – | – | – | IC50 [10]: 0.12 nM; IC50 [11]: 0.1 nM |
| ABII60D2 (VHH) VHH: EVQLVESGGGSVQAGGSLRLSCAYSGSIFSIKTMGWYRQAPGKQRELVGRITSGDSTNYADSVKGRFTISRDKAKTTVYLQMNNLKPEDTAVYYCAARRPWPRSDVWGQGTQVTVSS | > 1000 nM | – | – | – | – | binding result (A-beta(1-16) peptide): binds |
| ABII42D4-35GS-ABII60A10 (designed binder, biparatopic VHH construct) EVQLVESGGGLVLAGGSLRLSCVHSGPTFSTDTMGWFRQAPGKEREFVAAVTWNSGRTNYADSVKGRFTVSRDNTRNAAYLQMSGLKDEDTAVYYCTAHRLVVGGTSVGDWRYWGQGTQVTVSSGGGGSGGGGSGGGGSGGGGSGGGGSGGGGSGGGGSEVQLVESGGGLVQAGGSLRLSCAASGRTFNNYNMGWFRQAPGKEREFVAAVSRSGVSTYYADSVKGRFTISRDNAKNAVYLQMNSLKPEDTAIYYCGAAYRGTAINVRRSYDSWGQGTQVTVSS | – | – | – | – | – | IC50 [7]: 0.05 nM; IC50 [8]: 0.084 nM |
| ABII42E10 (VHH) VHH: EVQLVESGGGLVQPGGSLRLSCAASGLTFTLYTMGWFRQAPGKEREFVAAISASGGTTYYADSVKGRFALSRDNAKNTVFLQMNTLKPEDTAEYLCAAAFRGFAINTPTSYNYWGQGTQVTVSS | 17.5 nM | 75% | binds | 2.6 nM | 205 nM | – |
| ABII323-PEG40 (designed binder, PEG40 on the Cys at position 15 of the 35GS linker, 059-35GSC-035) VQLLESGGGLVQPGGSLRLSCAASGRTFNNYNMGWFRQAPGKGREFVAAVSRSGVSTYYADSVKGRFTISRDNSKNTVYLQMNSLRPEDTAVYYCAAAYRGTAINVRRSYSSWGQGTLVTVSSGGGGSGGGGSGGGGCGGGGSGGGGSGGGGSGGGGSEVQLLESGGGLVQPGGSLRLSCVHSGPTFRTDTMGWFRQAPGKGREFVAAVTWNSGRINYADSVKGRFTISRDNSKNTAYLQMNSLRPEDTAVYYCAAHRFVVGGNRVEDWRYWGQGTLVTVSS | – | – | – | – | – | IC50 [10]: 0.2 nM; IC50 [11]: 0.18 nM |
| ABII61F6 (VHH) VHH: EVQLVESGGGLVQTGGSLRLSCAASGSTVNINAMGWYRQAPGKQRELVAIINKRGVTNYADSTEGRFTISRDNSKRTLYLQMNSLKPEDTAVYYCNAVVGRYGRTYGYWGQGTQVTVSS | 469 nM | – | binds | 14.5 nM | 967 nM | – |
| reference VHH 31-1 (VHH, from WO2004/44204; also called V31-1) VHH: EVQLQASGGGSVQPGGSLRLSCAASGFIFGWSTMSWVRQAPGKGLEWVSTISGGGSATTYTDSVKGRFTISRDRAKNTLYLQMNSLKPEDTAIYYCNADVSTGFRYQRKDYWGRGTQVTVSS | – | – | – | – | – | binding result [1]: no binding; binding result [2]: no binding |
| ABII1E11 (VHH) VHH: EVQLVESGGGLVQPGGSLRLSCAASGRTFSDYNMGWFHQAPGKEREIVAAISRSGRSTYYTVSVEGRFTISRDNAKNTVDLEMNSLKPEDTGIYYCAANSAGRAINLPLYKYWGQGTQVTVSS | 27.3 nM | – | binds | 19.2 nM | 844 nM | – |

Further lines, with some results ahead:

| EC50 [3] | inhibition of peptide aggregation (ThT fluorescence), 28 µM VHH [5] | binding result (A-beta(12-28) peptide) | EC50 [6] | IC50 [9] | Binder | also measured |
| --- | --- | --- | --- | --- | --- | --- |
| 10.8 nM | 77% | binds | 2.1 nM | – | ABII42B10 (VHH) VHH: EVQLVESGGGLVQRGGSLRLSCAASGRTFSNLNMGWFRQAPGKEREFQAAISRSGGTTYYADSVKGRFTISRDNAKSTVFLQMNSLKPEDTAVYYCAAASPGGPINYGRAYDSWGQGTQVTVSS | IC50 [4]: 85.6 nM |
| 41.1 nM | 79% | binds | 20 nM | 228 nM | ABII42F5 (VHH) VHH: EVQLVESGGGLVQAGDSLRLSCTASGRTFTDYNIGWFCQAPGKEREFVAAISGSGGSTYYADSAKGRFTISRDNAKNTVYLQMNSLKPEDTAVYACAAAQRRLAVNVDTSYNVWGQGTQVTVSS | – |
| 10.7 nM | 76% | binds | 5.4 nM | 645 nM | ABII35G2 (VHH) VHH: EVQLVESGGGLVQAGGSLRLSCVASGRTFSNYGMGWFRQAPGKDREFVAAISRSGGTTYYEDDVKGRFTISRDNAKNSVYLQMNSLKPEDTAVYYCAARPSYVAVNIAASYNNWGQGTQVTVSS | – |
